Bridges are numbered along the chain shown (N, C = ends). Where no end group is shown, it is not given here. [ ]: non-standard residue; d: D form.
Legend:
healthy subjects = assay: Phase I single ascending oral dose study of SP-333; format: in vivo, human
Description: Two phase 1 clinical studies with SP-333 have been completed to date and a Phase 2 trial in OIC is in progress. In the Phase I single ascending oral dose study, conducted in 64 healthy subjects, the following doses of SP-333 were tested: 0.1, 0.3, 1, 3, 10, 20, 30, and 60 mg. […] Diarrhea was the most common adverse event and was generally dose-related, with 1 mg being the threshold dose. The time to onset of diarrhea was variable but tended to decrease with increasing doses from 4 to 2 hours or less. The number of subjects with watery bowel movement rose from none (<3 mg) to 2 of 6 (3, 10 and 20 mg) to 4 of 6 (30 mg). The majority of these episodes was mild, occurred once, and was associated with urgency and in some cases mild cramping. There were no SAEs.

healthy volunteers = assay: Phase I multiple ascending dose study of SP-333; format: in vivo, human
Description: […] The maximum tolerated dose was 30 mg with 60 mg deemed an intolerable dose due to 2 instances of fecal incontinence or soiling in the 7 patients dosed with 60 mg SP-333.

[1] = Phase 1 pharmacokinetic sampling (systemic absorption after oral dose); format: in vivo, human; conditions: oral doses <10 mg
Description: Phase 1 pharmacokinetic sampling indicated no detectable (limit of quantitation=1 ng/mL) systemic absorption of SP-333 following oral doses <10 mg; it is therefore highly unlikely that a single oral dose of 6 mg SP-333 will result in any systemic exposure.

[2] = tested on: patients scheduled to undergo colonoscopy; assay: Phase 1 pilot clinical study: oral SP-333 as adjunct to SUPREP Bowel Prep Kit for cleansing of the colon prior to colonoscopy; format: in vivo, human
Description: This clinical study outlined above was designed to assess the effect of a single oral dose of 6 mg SP-333 when given concurrently with a standard pre-colonoscopy bowel prep—the SUPREP® Bowel Prep Kit (Braintree Laboratories, Braintree, Mass. 02185, USA). The investigator is a highly experienced gastroenterologist and oversaw all study activities and performed all colonoscopies per their usual routine.
• 1. Take Study Drug approximately 30 minutes before the start of the first bottle of the bowel prep kit. • 2. Take a 6 ounce bottle of study preparation and pour the entire contents into the mixing cup provided. Fill the cup with cool water to the fill line (16 ounces) and drink the entire cup of solution. • 3. Drink two (2) 16 ounce glasses of WATER over the next hour. Fill the mixing cup with water up to the fill line (16 ounces) and drink the entire glass. Morning of Colonoscopy
At least 3 hours prior to colonoscopy: • 1. Take the second 6 ounce bottle of study preparation and pour the entire contents into the mixing cup provided. Fill the cup with cool water to the fill line (16 ounces) and drink the entire cup of solution. • 2. Drink two (2) 16 ounce glasses of WATER over the next hour. Fill the mixing cup with water up to the fill line (16 ounces) and drink the entire glass. • Patient must complete the solution and additional water at least 2 hours before colonoscopy.
The primary endpoint of this study was bowel preparation treatment success as determined by the investigator (bowel preparation will be rated by the Investigator as “Excellent”, “Good”, “Fair” or “Poor”). A successful bowel preparation treatment is defined as bowel cleansing graded either “Excellent” or “Good” by the investigator (See Table 10).
Patients were consented for the study at the same time that informed consent was obtained for the colonoscopy procedure. Each successfully consented & recruited patient took a single dose of 6 mg SP-333 in the evening before the colonoscopy—approximately 30 minutes prior to ingestion of the first bottle of the SUPREP® Bowel Prep Kit (See Section entitled “Patient Instructions for SUPREP® Bowel Prep Kit” above).
Bowel preparation treatment success rate was described; formal hypothesis testing was not performed.
The volume of intra-procedural water required to improve visualization, the proximal insertion depth of the colonoscope and whether or not the right colon and cecum were completely visualized were recorded in the Colonoscopy Procedure Record.

intestinal GC-C receptor = intestinal GC-C receptor (Homo sapiens, UniProt P25092); assay: in vitro and in vivo pharmacology studies (GC-C agonism); conditions: several in vitro and in vivo pharmacology studies
[3] = 6 mg oral daily dose, healthy volunteers
[4] = 6 mg SP-333 added to standard colonoscopy cleansing preparation (SUPREP), 9 patients

intestinal GC-C receptor, sequence (P25092 24-1073): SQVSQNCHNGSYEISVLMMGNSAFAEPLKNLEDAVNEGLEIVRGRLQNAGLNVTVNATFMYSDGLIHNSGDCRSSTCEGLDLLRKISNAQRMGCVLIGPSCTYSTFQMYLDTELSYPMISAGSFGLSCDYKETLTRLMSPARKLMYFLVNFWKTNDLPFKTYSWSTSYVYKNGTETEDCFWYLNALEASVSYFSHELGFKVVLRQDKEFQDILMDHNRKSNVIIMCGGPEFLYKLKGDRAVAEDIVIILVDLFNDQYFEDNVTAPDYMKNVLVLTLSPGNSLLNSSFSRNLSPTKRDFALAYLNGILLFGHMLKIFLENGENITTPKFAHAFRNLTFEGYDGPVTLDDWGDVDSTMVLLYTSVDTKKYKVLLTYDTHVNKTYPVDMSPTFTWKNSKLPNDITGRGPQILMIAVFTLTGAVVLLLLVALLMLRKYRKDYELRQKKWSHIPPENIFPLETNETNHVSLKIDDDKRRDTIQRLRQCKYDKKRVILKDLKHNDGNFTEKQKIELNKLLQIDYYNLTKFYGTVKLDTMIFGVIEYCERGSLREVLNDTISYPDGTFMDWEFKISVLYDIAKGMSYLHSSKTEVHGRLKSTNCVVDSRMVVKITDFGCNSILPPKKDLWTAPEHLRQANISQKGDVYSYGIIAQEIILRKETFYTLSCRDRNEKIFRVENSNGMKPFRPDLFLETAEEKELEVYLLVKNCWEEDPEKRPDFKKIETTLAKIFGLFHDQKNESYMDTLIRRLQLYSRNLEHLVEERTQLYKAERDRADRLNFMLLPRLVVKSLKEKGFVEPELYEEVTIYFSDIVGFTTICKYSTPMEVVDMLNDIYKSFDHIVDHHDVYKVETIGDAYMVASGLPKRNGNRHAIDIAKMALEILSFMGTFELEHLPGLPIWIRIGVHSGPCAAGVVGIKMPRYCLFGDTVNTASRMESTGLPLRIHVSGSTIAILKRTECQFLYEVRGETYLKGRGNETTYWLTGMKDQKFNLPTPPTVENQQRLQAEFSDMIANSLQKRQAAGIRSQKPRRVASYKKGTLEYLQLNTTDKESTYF

Substance: dAsn^1-Asp^2-Glu^3-Cys^4-Glu^5-Leu^6-Cys^7-Val^8-Asn^9-Val^10-Ala^11-Cys^12-Thr^13-Gly^14-Cys^15-dLeu^16 ([dN]DECELCVNVACTGC[dL]; disulfide 4-12, 7-15) [SP-333]
- severity of the majority of watery bowel movement episodes (healthy subjects; occurred once, associated with urgency, in some cases mild cramping): mild
- changes in clinical laboratory test results, ECG or vital signs (healthy subjects; single ascending oral dose): No clinically meaningful changes
- serious adverse events (SAEs) (healthy subjects; single ascending oral dose): no SAEs
- threshold dose for diarrhea (healthy subjects; single ascending oral dose): 1 mg
- most common adverse event (healthy subjects; single ascending oral dose, generally dose-related): Diarrhea
- number of subjects with watery bowel movement (healthy subjects; single oral dose 30 mg): 4 of 6
- number of subjects with watery bowel movement (healthy subjects; single oral dose 3, 10 and 20 mg): 2 of 6
- number of subjects with watery bowel movement (healthy subjects; single oral dose <3 mg): none
- overall safety and tolerability (healthy subjects; single oral doses 0.1, 0.3, 1, 3, 10, 20, 30, 60 mg, 64 healthy subjects): safe and well tolerated
- time to onset of diarrhea (healthy subjects; variable, tended to decrease with increasing doses, to 2 hours or less): 4 to 2 hours
- additional AEs (healthy volunteers; [3]): No additional AEs of note
- effect of dose in Phase 1 studies (basis of dose selection) (healthy volunteers; [3]): self-limited diarrhea (watery stools) with mild urgency
- instances of fecal incontinence or soiling (healthy volunteers; 60 mg daily for 7 days, 7 patients dosed): 2
- changes in hematology, clinical chemistry, or urinalysis parameters (healthy volunteers; any dose level): no clinically meaningful changes
- changes in vital sign or ECG parameters (healthy volunteers; any dose level): no clinically meaningful changes
- overall safety and tolerability (healthy volunteers; daily 0.3, 1, 3, 10, 30 mg for 14 days or 60 mg for 7 days, 89 subjects): generally safe and well-tolerated
- maximum tolerated dose (healthy volunteers; daily doses for 14 days): 30 mg
- intolerable dose (healthy volunteers; daily for 7 days, due to fecal incontinence or soiling): 60 mg
- most commonly reported TEAEs (treatment-emergent adverse events) (healthy volunteers; mild or moderate intensity): gastrointestinal disorders (primarily diarrhea and defecation urgency)
- subjects with a serious adverse event (SAE) (healthy volunteers; multiple ascending dose): no subject
- subjects withdrawn from the study due to a TEAE (healthy volunteers; multiple ascending dose): no subject
- systemic absorption (not detectable; limit of quantitation) [1]: < 1 ng/mL
- colonoscopy procedure outcome [2, 4]: safe and successful procedure
- visualization of the colon as observed by the gastroenterologist [2, 4]: better visualization of the entire colon
- tolerability of combination with standard colonoscopy preparation ([2]; single oral 6 mg SP-333 evening before colonoscopy plus SUPREP Bowel Prep Kit, 9 patients): very well
- ease of preparation as judged by subjects with previous colonoscopies ([2]; versus past colon cleansing preparation without SP-333): much easier
- agonism of the intestinal GC-C receptor (intestinal GC-C receptor): potent agonist
